Key:
Assay in all cases: split reporter
[1] = molecular target: ADGRL4-CTF1 F409A (human) (UniProt Q9HBW9)
[2] = molecular target: ADGRL4-CTF1 S414A (human) (UniProt Q9HBW9)
[3] = molecular target: ADGRL4-CTF1 I411A (human) (UniProt Q9HBW9)
[4] = molecular target: ADGRL4-CTF1 H408A (human) (UniProt Q9HBW9)
[5] = molecular target: ADGRL4-CTF1 L412A (human) (UniProt Q9HBW9)

- Gq coupling as percent of wild-type CTF1 [1]: 12%
- reduction of Gq coupling relative to wild-type CTF1 [2]: > 50%
- reduction of Gq coupling relative to wild-type CTF1 [3]: > 50%
- reduction of Gq coupling relative to wild-type CTF1 [4]: > 50%
- reduction of Gq coupling relative to wild-type CTF1 [5]: > 50%
Substance: LgBiT-mini-Gq (mini-Gs/q version 70) (domain or fragment)

From paper doi:10.1101/2025.10.03.680274
